Molecular target: human PD-L1 expressed on CHO-K1 cells (human) (UniProt Q9NZQ7)
Test: FACS binding to CHO-K1 cells stably expressing human PD-L1, FITC anti-human IgG secondary, Geo.Mean fluorescence vs log(nM) antibody

human PD-L1 expressed on CHO-K1 cells (human), sequence (Q9NZQ7 19-290): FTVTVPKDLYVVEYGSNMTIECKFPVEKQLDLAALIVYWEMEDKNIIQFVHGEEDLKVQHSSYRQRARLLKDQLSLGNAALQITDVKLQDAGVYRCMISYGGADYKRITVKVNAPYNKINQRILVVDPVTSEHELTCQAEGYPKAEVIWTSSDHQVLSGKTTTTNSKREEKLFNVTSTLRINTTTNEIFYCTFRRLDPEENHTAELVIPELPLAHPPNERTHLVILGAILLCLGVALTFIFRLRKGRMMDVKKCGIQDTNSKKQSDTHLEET

With Tecentriq® (antibody) as the substance, how does the EC50 (read off the curve) read?
The EC50 (read off the curve) was 20 nM.

— patent US20210221891A1
